Experimental data reported in the domain aggregation screens of Martell et al. (2025).

Experiment: soluble fraction after stress (log2 fold change); higher = more stays soluble; pooled small domains, quantitative proteomics
Conditions: stress: 50 degC
Method in brief: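 The stress applied to every library was 50°C. These custom libraries of small protein domains were pooled and measured at high throughput with quantitative proteomics as the read-out. Aggregation propensity is expressed as the base-two logarithm of the fold change in how much of each protein remains soluble. The higher the value, the more of that protein stays in solution.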

| Sequence | soluble fraction (log2) |
| --- | --- |
| HMSNMWVWSKLSGIQWMDAWEDRFHGNPNTVITRLKTNKTVRVEVYTETEQEALDIKKLFGGSIRKLV | -2.96 |
| HMKIGIYPGTFDPITHGHTDIIRRSLRVFDKVVVAVAPNPSKHPLFTLTERLEMIRIVMKELEHVEVT | 0.0231 |
| HMTKVMVPNVVGMSRGEAEEALRGVKLQVDLKREVSDDPEVKPEEVLRQTPDAQTSVPQGSVVTLYVADKP | 0.355 |
| HMNLGVIYSLKAEVRSEPNTFSTRLFEVHEGLKVSINQLENDWVEIELLDGKTGWISNDQIRLI | -2.12 |
| HMKDESYALGTRLLSHALGKTKLEDLAQEKIDEVVQQSGNKTLEQLLTNIGLGNALSIGIARQLT | 0.383 |
| HMTSPLQIHPNPATKHIELGLESPEVVLIKDINGKTVYQELVAPNQYIDIEHLKNGIYFIESKNKFGKLIK | 0.169 |
| HMAKIEVENLEETILENLKANNGFMPYNDKTSPEEIYEVFHVSKKHFKNSLGGLMKKGLIFQNEKGTKL | -0.0312 |
| HMPELSPEERAIIETLQKNNDLQVNIIAIKTGMDMGSLSAVLFDLEMKGLVKLLAGGMYHLI | -0.148 |
| HMSPAVSLITGKLGAETYYKQGLKKAKEKDYEGALDDLIKAYEFFPDKKIKTQVDKLASFLGKPPIL | 0.0669 |
| HMNEPSSYGYAISVALDRNGLGTVKGGTLYPLLARLEQAAHVETRWEAGDGGPGRKYYTITDSGRS | -0.201 |
| HMREISSDELHSLFSADQRGDLVINETTRLSIEKLYALHTPEEREAKVNELSGVLPSEAHRQLVHFLDYFD | -1.26 |
| HMENAEALLKKLSGVLSDYEYKMLMLYADGKTPRRIAQETGQSAKSVSNALFRARTKLKELYEDQ | -0.331 |
| HMATAADLLQSATGVPRSDALLLLAKLLGVAKERLIAHPETVVSEKTQATFSDWIERVRGGFPTTYLLG | -0.0115 |
| HMIQIQDIAFSEFLQELDKGNIVEVNIKGDLINGDLINGKKFKTVAPYDPNLVEKLSKQNVRINVEPIN | 0.125 |
| HMLNDMYAVMEIRGQGGELIAKLINQDGSPFYVKKGTTLQSGHVIDEITTTYVRAEKAGAKDYLYF | -0.0846 |
| HMTTPDIIVPDVKGMTVAEAQKALEEKGFKVKLEEMTQEGAVPGDVIRIDPVAGTKRKEGAKITLLIARG | 0.161 |
| HMAQLVVTVDKLNKRTAIPVTLSDKSSNDSVVEKGFRFEGFPFVNTATNGKKWYKDREGFFYWAGGLMEEA | 0.0125 |
| HMNNVDIMGRMVYDDQHREVINFGKYKGVLVTEVLKKDPGYFSWIQQGDFPSDMKRIMMAIKLRM | -2.3 |
| HMLPVYSITEAAERLDIPASTIKWYADRFASYISPSKGKGRKRFTPEDLATLQKIHELSQDHTTEEAEAML | -0.281 |

| Sequence | soluble fraction (log2) |
| --- | --- |
| HMPVSTLLGDNLRRLRTAKGYTQEAVADAARISVAAYRNYETGRAIPKVNTLLAIARALGVSLNDLVTE | -0.104 |
| HMQERNYIVRRGDTLWDLAKTYYGSGTKYTVIYDANRDNIEAEAKRRGKQSSNGGYWIYPGTELTI | -0.368 |
| HMKTYGGDNSLHKFDEHHSWMVAKYGPVVKQTINGETKWLKVKKDLTLAQVKKMKLEDVLLPKSQT | -0.152 |
| HMDMQMPIMNGLEFLERINLTLDDNFSIIVLTGKIEDKSIEKSFELGINAYLRKPFNIYALLGIVRQN | -0.0848 |
| HMLPFGHTRLEDGTIQEIPEQIALARKVAEMYKAGFPVMQISIKTEGLLTPRQIYGLMNHWGVKR | -1.24 |
| HMESSKLQASIINYLERRPTQKFTAEELFKGLSLEKASVFNELVKELTSLERSHKVEITADDKFKIARPQ | -0.126 |
| HMTYADTRDLLIRRGMELLTEQGIAATSIERVLQSTGIPKGSFYHYFATKHDFTLAVMDAYHHY | -0.0315 |
| HMETVRLSVDAQGAYYWNEQRVDDSALPDLLREASGRKPQPDLHIRGDKAVRYERVAEAMAAAQRAGLKKI | 0.0588 |
| HMNMPHEIDANFISSLGRLIDNHGKNYGDFQIFREMFLDYFPRFDELSSNNKEKINRRLYKFFETLFG | -1.71 |
| HMGMGDALRILFNQAMLIEREQYLQAGAYERNENPVNYANGFKAKTLNTRVGALEVAVPQTRDSAFYPSFL | -0.114 |
| HMDGLIRLNKLLATLGVESRRHAEEMIIAGRITVDGVTATEKGQKVRRGAVIKVDGVEVGPPP | -0.121 |
| HMGAYITYEVKPGDTLWDIANKFPGVSADNIKTWNKVDELIKAGERLKINTQTITDYSPDKYPS | -0.221 |
| HMVAPNSEATTKLIIEKTKYANESPAILMGFKATATMLMAKHVVLPTSKYAYFNEGRALLEKAIK | -0.0203 |
| HMVEMSNMELVREQYFQNLIYNVGDWVKDSKTEITGEVVKRGTNYLTIVQEDFTLHKVWLEDAESME | -0.581 |
| HMQSHIVPDVKSQHIAQAKALLESKQMKAVVIDSNFVKGLPAGIVLDQTPIGGARVKENRTIYLTINTL | -0.557 |
| HMNNMVNTLLKLLAEQDVLRGIVRRFTPSSVFVFLQNEEVEVELPLQGRSLAPGQLVELTQEGASVALKRL | -0.647 |
| HMAAGVESLTEKEFAVASLVGGGASNREIAERLAMSERTVKSHLSSIFRKMDVRDRVQLALAMND | 0.00815 |
| HMEIMELPEYVVRSGSGLDAFREKWDLWDQGLMYDLKDKRAVFPIFIDGVMIDAVGRALAGAEPKWLRYTG | -0.165 |
| HMAQLPADLSKVKSSQISDQQLTQIAQQAKNSGQSEQAVLQELKQRGLPDTEIQALGARISGLMQ | 0.137 |
